Earlier results, collected in patent US20240366723A1, “COMBINATION THERAPY FOR THE TREATMENT OF ENTERIC NEUROPATHIES” (TRANSFERT PLUS, LIMITED PARTNERSHIP, priority 2021, published 2024).

B1: BMP4: Bone morphogenetic protein 4 (protein, UniProt P12644 293-408, looked up)
Bone morphogenetic protein 4: SPKHHSQRARKKNKNCRRHSLYVDFSDVGWNDWIVAPPGYQAFYCHGDCPFPLADHLNSTNHAIVQTLVNSVNSSIPKACCVPTELSAISMLYLDEYDKVVLKNYQEMVVEGCGCR
B2: MANF: Mesencephalic Astrocyte Derived Neurotrophic Factor (protein, UniProt P55145 25-182, looked up)
Mesencephalic …: LRPGDCEVCISYLGRFYQDLKDRDVTFSPATIENELIKFCREARGKENRLCYYIGATDDAATKIINEVSKPLAHHIPVEKICEKLKKKDSQICELKYDKQIDLSTVDLKKLRVKELKKILDDWGETCKGCAEKSDYIRKINELMPKYAPKAASARTDL

Details: literature reports, various models

| Molecule | Reported neurotrophic activity |
| --- | --- |
| B1 | BMP signaling is necessary for neural crest cell |
| B2 | MANF has neuroregenerative activity via differentiation |
